Results reported in article PMC4581524 (Journal of cellular biochemistry, 2015).
Where a chain is given by its changes, count along the chain named. In names and notes the source's numbering stands.

Target: T1, monomeric RANK (UniProt O35305 31-214)
T1 sequence (looked up): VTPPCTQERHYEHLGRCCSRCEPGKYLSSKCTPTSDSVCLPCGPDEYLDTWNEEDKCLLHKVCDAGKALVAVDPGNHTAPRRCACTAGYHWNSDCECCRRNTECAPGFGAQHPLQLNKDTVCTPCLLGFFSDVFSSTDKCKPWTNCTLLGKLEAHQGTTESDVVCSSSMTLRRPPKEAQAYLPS
Experiment: SPR

B1: RANKL K194E (ligand)
chain: KPEAQPFAHLTINAASIPSGSHKVTLSSWYHDRGWAEISNMTLSNGKLRVNQDGFYYLYANISFRHHETSGSVPTDYLQLMVYVVKTSEKIPSSHNLMKGGSTKNWSGNSEFHFYSINVGGFFKLRAGEEISIQVSNPSLLDPDQDATYFGAFKVQDID
modifications: Homotrimer; limits by convention (mouse RANKL ectodomain core). Species inferred: the printed numbering fits mouse
Binder B1 has a Kd of 899 nM, a koff of 0.101 s⁻¹ and a kon of 113000 M⁻¹ s⁻¹.

B2: RANKL K194E/Q236H (ligand)
chain: B1 chain with Q79H
modifications: Homotrimer; limits by convention (mouse RANKL ectodomain core)
With B2 the Kd was 67 nM, the koff was 0.017 s⁻¹ and the kon was 174000 M⁻¹ s⁻¹.

B3: RANKL K194E/Q236H/F269Y (ligand)
chain: B1 chain with Q79H, F112Y
modifications: Homotrimer; limits by convention (mouse RANKL ectodomain core)
With B3 the Kd was 29 nM, the koff was 0.005 s⁻¹ and the kon was 167000 M⁻¹ s⁻¹.

B4: RANKL Q236H (ligand)
chain: B1 chain with E37K, Q79H
modifications: Homotrimer; limits by convention (mouse RANKL ectodomain core)
B4 showed a Kd of 81 nM, a koff of 0.023 s⁻¹ and a kon of 300000 M⁻¹ s⁻¹.
